4 molecules from patent US20060105385, “Xenobiotic related induction of gene expression” (The University of Sydney, published 2006) can be followed below.

Holding throughout (settings): label: 32P
Data set [1] addresses T1, hPXR-RXR heterodimer (human pregnane X receptor / retinoid X receptor) (UniProt O75469;P19793 O75469:1-434,P19793:1-462). Kind of data set: EMSA; no shift apparent; mutation of the site lowers reporter to 52% of wild type. How it is done:
(§1) The hPXR is an orphan nuclear receptor, belonging to the nuclear receptor gene superfamily. […] In order to evaluate the affinity of these putative response elements for HPXR-RXR heterodimers, electromobility shift assays (EMSA) were performed using with in-vitro transcribed/translated hPXR and RXR.

Data set [2] deals with T1, hPXR-RXR heterodimer (human pregnane X …). As to the kind of experiment: EMSA; no shift apparent; described as functionally important by mutagenesis. How it is done:
as §1
In general terms: A gel shift assay detects complexes by their altered migration in electrophoresis.

Data set [3] has the same target. As to the kind of experiment: EMSA; efficient gel shift. The method, then:
as §1

T1 sequence (O75469 whole entry, chain 1 of 2): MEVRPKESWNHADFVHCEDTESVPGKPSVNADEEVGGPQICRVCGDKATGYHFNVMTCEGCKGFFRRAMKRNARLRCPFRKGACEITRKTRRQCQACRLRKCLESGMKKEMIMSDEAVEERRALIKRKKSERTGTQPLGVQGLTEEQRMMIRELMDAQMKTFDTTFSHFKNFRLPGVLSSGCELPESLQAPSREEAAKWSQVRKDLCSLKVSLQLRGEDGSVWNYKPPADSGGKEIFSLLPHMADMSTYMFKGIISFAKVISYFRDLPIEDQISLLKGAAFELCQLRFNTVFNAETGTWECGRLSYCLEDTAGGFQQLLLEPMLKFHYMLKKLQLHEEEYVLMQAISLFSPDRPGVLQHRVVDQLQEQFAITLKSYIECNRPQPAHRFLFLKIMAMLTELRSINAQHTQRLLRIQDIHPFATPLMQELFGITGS
T1 sequence (P19793 whole entry, chain 2 of 2): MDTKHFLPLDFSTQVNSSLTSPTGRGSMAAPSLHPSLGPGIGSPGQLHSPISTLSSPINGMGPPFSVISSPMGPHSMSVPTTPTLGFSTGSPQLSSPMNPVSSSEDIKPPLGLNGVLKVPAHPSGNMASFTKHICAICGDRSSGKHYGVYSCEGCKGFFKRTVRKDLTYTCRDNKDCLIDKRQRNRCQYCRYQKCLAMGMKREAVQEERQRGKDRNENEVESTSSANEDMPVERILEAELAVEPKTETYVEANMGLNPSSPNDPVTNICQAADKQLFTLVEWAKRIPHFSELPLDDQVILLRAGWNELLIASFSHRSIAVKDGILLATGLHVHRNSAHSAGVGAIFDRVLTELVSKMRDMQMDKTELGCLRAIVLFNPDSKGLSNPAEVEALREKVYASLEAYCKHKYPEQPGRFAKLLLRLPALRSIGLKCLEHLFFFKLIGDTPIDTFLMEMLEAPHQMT

B1: XREM-DR6 (dsDNA)
DNA 1: AGGTGAATCACAAGCTGAACTTCT
DNA 2: AGAAGTTCAGCTTGTGATTCACCT
Take B1: the binding result in data set [1] was “no binding”.

B2: XREM-DR3-2 (dsDNA)
DNA 1: ATATATTGTTATTGAACTATC
DNA 2: GATAGTTCAATAACAATATAT
As to B2, the binding result in data set [2] is on record as “no binding”.

B3: Prox-ER6 (dsDNA)
DNA 1: ATATGAACTCAAAGGAGGTCAGTG
DNA 2: CACTGACCTCCTTTGAGTTCATAT
As for B3, the binding result in data set [3] was “binds”.

B4: XREM-DR3-1 (dsDNA)
DNA 1: GAATGAACTTGCTGACCCTCT
DNA 2: AGAGGGTCAGCAAGTTCATTC
Turning to B4, in data set [3], the binding result is listed as “binds”.
